The results in this text go back to patent US20240343811A1.

Test [1] has as its target CD16 on primary human NK cells (human) (UniProt P08637). As to the kind of experiment: FACS on human NK cells.
For test [2], the target named is human CD16a (158V), full length, on cells (human) (UniProt P08637). Kind of test: FACS, biotinylated antibody. Background: In flow cytometry, cells or beads pass a laser one at a time.
Test [3] addresses cynomolgus monkey CD16, full length, on FlpinCHO cells (cynomolgus monkey) (UniProt Q8SPW2). Kind of test: FACS on FlpinCHO cells.
In test [4] the target is human CD16a (158F), full length, on FlpinCHO cells (human) (UniProt P08637). As to the kind of experiment: FACS on FlpinCHO cells.
Test [5] has as its target human CD16b (NA2), full length, on FlpinCHO cells (human) (UniProt O75015). Kind of test: FACS on FlpinCHO cells.
In test [6] the target is human CD16b (NA1), full length, on FlpinCHO cells (human) (UniProt O75015). Kind of test: FACS on FlpinCHO cells.
In test [7] the target is human CD16a (158V), full length, on cells (human) (UniProt P08637). As to the kind of experiment: FACS on FlpinCHO cells.
Test [8] has the same target. As to the kind of experiment: FACS, biotinylated antibody, +10 mg/mL human immunoglobulin.
The target is the same in test [9]. Kind of test: cell-based or functional assay.
Test [10] shares this target. As to the kind of experiment: cell-based or functional assay. The source holds these as a separate data set.

Like-named read-outs stand apart in the source and are kept apart here.

Chain of human CD16a (158V), full length, on cells (human) (P08637 17-254 F176V limits assumed): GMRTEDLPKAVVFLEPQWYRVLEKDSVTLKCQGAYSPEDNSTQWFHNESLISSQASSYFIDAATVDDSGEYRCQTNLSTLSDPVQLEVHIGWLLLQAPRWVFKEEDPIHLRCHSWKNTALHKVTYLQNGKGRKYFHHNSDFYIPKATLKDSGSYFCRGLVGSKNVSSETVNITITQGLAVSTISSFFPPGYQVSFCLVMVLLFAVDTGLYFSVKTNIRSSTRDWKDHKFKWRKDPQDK
Chain of human CD16b (NA1), full length, on FlpinCHO cells (human) (O75015 other isoform, or with tags, fused parts or gaps limits assumed): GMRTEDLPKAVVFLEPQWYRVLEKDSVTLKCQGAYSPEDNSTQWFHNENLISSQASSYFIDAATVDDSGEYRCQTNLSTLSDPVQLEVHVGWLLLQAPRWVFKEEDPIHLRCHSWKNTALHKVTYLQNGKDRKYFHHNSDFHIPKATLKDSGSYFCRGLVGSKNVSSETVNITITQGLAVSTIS
Chain of CD16 on primary human NK cells (human) (P08637 17-254): as the sequence (P08637 17-254 F176V limits assumed) above, with V160F counted along it
Chain of human CD16a (158F), full length, on FlpinCHO cells (human) (P08637 17-254 limits assumed): as the sequence (P08637 17-254 F176V limits assumed) above, with V160F counted along it
Chain of cynomolgus monkey CD16, full length, on FlpinCHO cells (cynomolgus monkey) (Q8SPW2 other isoform, or with tags, fused parts or gaps limits assumed): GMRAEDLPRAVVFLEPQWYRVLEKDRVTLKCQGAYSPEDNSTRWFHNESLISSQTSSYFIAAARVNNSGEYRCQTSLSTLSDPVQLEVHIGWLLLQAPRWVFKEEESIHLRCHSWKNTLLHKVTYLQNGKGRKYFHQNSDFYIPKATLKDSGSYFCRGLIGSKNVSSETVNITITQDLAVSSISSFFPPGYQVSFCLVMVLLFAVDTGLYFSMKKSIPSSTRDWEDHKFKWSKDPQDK
Chain of human CD16b (NA2), full length, on FlpinCHO cells (human) (O75015 17-200 N65S limits assumed): as the sequence (O75015 other isoform, or with tags, fused parts or gaps limits assumed) above, with R20S, N49S, D66N, V90I counted along it

Take “NC, negative control antibody scFv-hFc (L234A, L235A and D265A) against chicken egg lysozyme (Fc fusion)”: the Maximum mean fluorescence intensity in test [1] was determined as 238; in [2], 134; in test [3], 128; in [4], 216; in test [5], 447; in test [6] it was 189. Also, the values for the Maximum mean fluorescence intensity in [7] and in test [8] were 248 and 96, respectively. Moreover, the Maximum fluorescence value in [9] is 2070; in test [10] it was 6400. For the same substance, in test [10], the EC50, activation activity for Jurkat cell turned out to be 0.019 µM.
